The record followed here is publication PMC9344649, “Involvement of MdWRKY40 in the defense of mycorrhizal apple against fusarium solani”.

Data set [1] concerns the target T1, MdWRKY40 (Malus domestica, UniProt A0A7S5ATZ6 1-302). Kind of data set: EMSA; cold probe weakens binding; EMSA: binding buffer not specified, 24 °C, 30 min; salt and pH not stated. The settings on record: protein: recombinant; tags: His tag, pET-32a(+) fusion; blunt.
For data set [2], the target named is T1, MdWRKY40. As to the kind of experiment: EMSA; text says not bound; the only printed mutant is of W-box 3, so numbering of 2 and 3 is uncertain; EMSA: binding buffer not specified, 24 °C, 30 min; salt and pH not stated. The note with it: protein: recombinant; tags: His tag, pET-32a(+) fusion; blunt. For orientation: In EMSA bound probe runs differently from free probe, usually more slowly.

T1 sequence (A0A7S5ATZ6 entry or part of it): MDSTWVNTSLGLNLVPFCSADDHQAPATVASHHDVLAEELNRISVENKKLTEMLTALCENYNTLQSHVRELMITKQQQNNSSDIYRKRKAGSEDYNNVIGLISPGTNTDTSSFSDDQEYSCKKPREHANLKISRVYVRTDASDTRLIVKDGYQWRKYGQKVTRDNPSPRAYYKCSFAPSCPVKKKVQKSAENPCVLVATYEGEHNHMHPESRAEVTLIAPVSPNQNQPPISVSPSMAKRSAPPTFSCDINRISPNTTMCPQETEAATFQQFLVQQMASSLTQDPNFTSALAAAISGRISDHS

B1: proMdGLU W-box 2 probe (dsDNA)
DNA 1: ATCACAAATAAAATTGATATTTGACCAACTACATGCCACGATCACA
DNA 2: TGTGATCGTGGCATGTAGTTGGTCAAATATCAATTTTATTTGTGAT
For B1, in data set [1], the binding result was “binds”.

B2: proMdGLU W-box 3 probe (dsDNA)
DNA 1: CTTTCCCCCCTATAAATACTTTGACCACCAACTCCCCAATCCTCCA
DNA 2: TGGAGGATTGGGGAGTTGGTGGTCAAAGTATTTATAGGGGGGAAAG
Consider B2, for which the binding result in data set [2] is “no binding”.
